Experiments:
[1] = biological target: T1, human transferrin receptor (Transferrin receptor protein 1 isoform 1, Homo sapiens, NCBI NP_003225.2) (Homo sapiens, UniProt P02786 1-760); assay: cell-based or functional assay
[2] = biological target: T1, human transferrin receptor (Transferrin …); assay: flow cytometry, biotinylated antibody on THP-1 and MEC-1 cells, streptavidin Alexa F488
Description: Serial dilutions (5 to 0.05 ug/mL) of both biotinylated antibodies (antibody A24 and antibody of ADC INA01-SDV1) were performed and incubated on THP-1 and MEC-1 cell lines. The binding of the diluted antibodies was detected by Flow cytometry using streptavidin Alexa F488 (available at ThermoFisher scientific).

T1 sequence (P02786 whole entry, canonical isoform): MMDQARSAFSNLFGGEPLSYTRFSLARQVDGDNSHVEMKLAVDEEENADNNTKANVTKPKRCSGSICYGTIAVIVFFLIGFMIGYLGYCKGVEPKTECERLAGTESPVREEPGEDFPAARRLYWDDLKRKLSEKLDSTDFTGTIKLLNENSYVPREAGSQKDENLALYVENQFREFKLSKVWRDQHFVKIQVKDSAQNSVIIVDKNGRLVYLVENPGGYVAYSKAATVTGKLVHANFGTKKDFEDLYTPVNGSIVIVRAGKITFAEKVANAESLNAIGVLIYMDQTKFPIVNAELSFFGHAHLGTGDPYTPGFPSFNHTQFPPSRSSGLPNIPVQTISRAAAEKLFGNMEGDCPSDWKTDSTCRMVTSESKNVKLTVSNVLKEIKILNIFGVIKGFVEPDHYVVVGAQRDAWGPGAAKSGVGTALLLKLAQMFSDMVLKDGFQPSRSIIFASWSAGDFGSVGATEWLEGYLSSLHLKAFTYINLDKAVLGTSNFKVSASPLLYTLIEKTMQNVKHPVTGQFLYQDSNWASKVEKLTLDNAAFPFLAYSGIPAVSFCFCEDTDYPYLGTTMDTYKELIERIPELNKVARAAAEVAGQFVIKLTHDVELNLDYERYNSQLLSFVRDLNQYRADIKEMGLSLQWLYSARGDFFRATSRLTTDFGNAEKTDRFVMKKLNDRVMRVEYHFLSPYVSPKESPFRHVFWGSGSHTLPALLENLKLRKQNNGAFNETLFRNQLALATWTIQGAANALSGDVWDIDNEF

| Binder | IC50 of cell proliferation of HL-60 acute myeloid leukemia cell line [1] | binding result [2] |
| --- | --- | --- |
| INA01-SDV1 (antibody, human IgG4 S228P, kappa, V domains shown, linker APN (formula IV)-valine-citrulline-para-aminobenzyl ester-MMAE attached through the cysteine residues (thiols); biotinylated in Example 1) VH: QVQLVQSGPELKKPGASVKVSCKASGYTFTNQGMNWVKQAPGKGLKWMGWINTYTGEPINADDFKGRFVISLDTSASTAYLQISSLKAEDTAVYFCVREGWDSMDYWGQGTSVTVSS VL: QIVLTQSPATLSVSPGERATLSCSASSSVNYMHWFQQKPGQSPRLLIYSTSNRATGIPARFSGSGSGTSYTLTISSLEPEDFAVYYCQQRSSYPLTFGQGTKLEIKR | 0.08 µg/mL | – |
| A24 (antibody, V domains shown, biotinylated in Example 1, Mouse monoclonal IgG (IgG2kappa) as disclosed in WO 2005/111082; also called antibody A24; murine A24 antibody) VH: QIQLVQSGPELKKPGETVKISCKASGYTFTNQGMNWVKQAPGKGLKWMGWINTYTGEPINADDFKGRFAISLETSASTAYLQINNLKNEDMATYFCVREGWDSMDYWGQGTSVTVSS VL: QIVLTQSPAIMSASPGEKVTITCSASSSVNYMHWFQQKPGTSPKLWIYSTSNLASGVPARFSGSGSGTSYSLTISRMEAEDAATYYCQQRSSYPLTFGAGTKLELKR | – | binds |
